Measurements from publication PMC4917896, “RNA binding proteins regulate anabolic and catabolic gene expression in chondrocytes”.

Target: TTP (tristetraprolin), GST-TTP (UniProt P26651 1-326)
Experiment: EMSA; 10 mM Tris-HCl pH 7.5, 50 mM KCl, 1 mM DTT, 5% glycerol, 500 ug/ml tRNA, 40 ng probe in 20 ul, 20 min at 4 C (stated for lysate EMSA); 6% native PAGE on ice
Conditions: protein: commercial; (GST fusion); label: 3' biotin

TTP (tristetraprolin), GST-TTP, sequence (P26651 whole entry): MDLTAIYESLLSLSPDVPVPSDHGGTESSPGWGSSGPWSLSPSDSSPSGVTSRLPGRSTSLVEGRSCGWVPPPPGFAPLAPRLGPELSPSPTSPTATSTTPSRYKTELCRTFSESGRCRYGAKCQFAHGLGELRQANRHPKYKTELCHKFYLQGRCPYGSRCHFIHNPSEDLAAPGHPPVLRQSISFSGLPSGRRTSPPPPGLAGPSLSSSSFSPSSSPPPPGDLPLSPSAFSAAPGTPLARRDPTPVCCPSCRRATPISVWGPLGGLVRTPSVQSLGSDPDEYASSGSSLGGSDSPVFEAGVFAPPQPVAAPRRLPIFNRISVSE

Binder | binding result
P6M (probe 6, AUUUA to AGGGA) (ssRNA) RNA: GGGGUUAAAUUAUGUUCUUAACUGUAACCAGUUUUUUUUUAGGGAUCUCUUUAAUCUUUUUUUAUUAUUAAAAGCAAGUUUC | no binding
P5M (probe 5, AUUUA to AGGGA) (ssRNA) RNA: GGGAGCAGUUAACCUUCAAGACAUUCCACUUGCUAAAAUUAGGGAUUUUGUAAGGAGAGGUUUUAAUUAAAACAAAAAAAAA | no binding
